One test concerns the target T1, GIP receptor.
T1 sequence (P48546 whole entry, species assumed, looked up): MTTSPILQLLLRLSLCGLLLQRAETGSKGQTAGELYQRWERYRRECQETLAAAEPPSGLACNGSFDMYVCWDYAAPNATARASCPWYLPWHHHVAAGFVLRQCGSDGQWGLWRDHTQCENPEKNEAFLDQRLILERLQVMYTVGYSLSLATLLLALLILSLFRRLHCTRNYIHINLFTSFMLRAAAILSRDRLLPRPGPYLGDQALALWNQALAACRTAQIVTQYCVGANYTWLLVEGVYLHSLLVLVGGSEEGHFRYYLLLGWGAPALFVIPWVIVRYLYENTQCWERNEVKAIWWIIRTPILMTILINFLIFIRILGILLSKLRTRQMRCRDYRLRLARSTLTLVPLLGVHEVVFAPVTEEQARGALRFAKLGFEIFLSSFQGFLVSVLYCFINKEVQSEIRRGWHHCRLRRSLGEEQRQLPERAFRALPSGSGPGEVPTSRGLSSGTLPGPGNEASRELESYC
The test can be described thus: cell-based or functional assay.

For another test, the target named is GLP-1 receptor. The test is described as follows: cell-based or functional assay.

B1: BG128 (peptide)
peptide: YXEGTFTSDYSIXLDKIAQKAFVQWLIAGGPSSGAPPPSK
modifications: Aib (2-aminoisobutyric acid) at positions 2 and 13; Lys at position 40 carries on its side chain AEEEA-AEEEA-gamma-Glu-icosanedioic acid (Fmoc-AEEEA-OH, Fmoc-AEEEA-OH, Fmoc-Glu-OtBu and 20-(tert-butoxy)-20-oxoicosanoic acid condensed in turn); C-terminal amide (made on Rink MBHA Amide resin)
With B1, the “cAMP experimental result of GIP receptor, EC50” value with GIP receptor was determined as 0.279 nM. Besides, in the test with GLP-1 receptor, the “cAMP experimental result of GLP-1 receptor, EC50” value was determined as 0.11 nM.

B2: BGM125 (peptide)
peptide: YXEGTFTSDYSIXLDKIAQKAFVQWLIAGGPSSGAPPPS
modifications: Aib at positions 2 and 13; by the synthesis order the Lys(Alloc) at position 16 carries AEEEA-AEEEA-gamma-Glu-icosanedioic acid on its side chain; C-terminal amide (Rink MBHA Amide resin)
As to B2, in the test with GIP receptor, the “cAMP experimental result of GIP receptor, EC50” value is 0.684 nM. In addition, in the test with GLP-1 receptor, the “cAMP experimental result of GLP-1 receptor, EC50” value was found to be 0.0692 nM.

The values above are taken from patent publication US12215133 (BRIGHTGENE BIO MEDICAL TECHNOLOGY, dated 2025).
